Reference: the Human Domainome abundance scans (Beltran et al. 2025)
± gives the uncertainty stated by the source.

B1: Serine/threonine-protein kinase A-Raf, residues 21 to 89; numbered along this chain, P10398 (parent)
chain: VKVYLPNKQRTVVTVRDGMSVYDSLDKALKVRGLNQDCCVVYRLIKGRKTVTAWDTAIAPLDGEELIVE

Variants of: B1
Assay: abundance fitness (aPCA) (normalised: wild type 0, dead -1); higher = more abundant; growth selection in yeast, the domain comes from the species named
Details: Homo sapiens

R48E and R48K are within error of each other in abundance fitness: 0.025 ± 0.087 for the first, 0.097 ± 0.085 for the second.

R48H and T50R are within error of each other in abundance fitness: -0.025 ± 0.38 for the first, -0.173 ± 0.35 for the second.

First: M19P
Second: M19G
The abundance fitness of the first is lower: -0.778 ± 0.1 for the first, -0.216 ± 0.064 for the second.

Compared with M19W, M19L is lower in abundance fitness: -0.053 ± 0.05 for the first, -0.154 ± 0.049 for the second.

Compared with V31C, V31A is higher in abundance fitness: -0.103 ± 0.086 for the first, 0.111 ± 0.056 for the second.

Compared with V31R, V31G is lower in abundance fitness: 0.004 ± 0.046 for the first, -0.086 ± 0.04 for the second.

V31N and V31F are within error of each other in abundance fitness: -0.073 ± 0.17 for the first, -0.187 ± 0.12 for the second.

Compared with V31M, N7S is lower in abundance fitness: -0.045 ± 0.082 for the first, -0.321 ± 0.042 for the second.

First: N7I
Second: N7G
The abundance fitness of the first is lower: -0.936 ± 0.15 for the first, 0.041 ± 0.026 for the second.

First: N7C
Second: N7Q
The abundance fitness of the first is lower: -0.521 ± 0.079 for the first, -0.216 ± 0.071 for the second.

A53C and A53H are within error of each other in abundance fitness: -0.166 ± 0.11 for the first, -0.098 ± 0.07 for the second.

Going from A53Q to A53M, the abundance fitness falls from -0.078 ± 0.064 to -0.549 ± 0.14.

A53P and V51P are within error of each other in abundance fitness: 0.032 ± 0.075 for the first, 0.031 ± 0.077 for the second.

V51Q and V51Y are within error of each other in abundance fitness: -0.032 ± 0.064 for the first, -0.255 ± 0.2 for the second.

First: L5A
Second: L5R
The abundance fitness of the first is higher: -0.772 ± 0.15 for the first, -1.1 ± 0.12 for the second.

Compared with L5V, L5W is higher in abundance fitness: -0.896 ± 0.12 for the first, 0.113 ± 0.062 for the second.

L5C and L5P are within error of each other in abundance fitness: -0.784 ± 0.14 for the first, -0.778 ± 0.18 for the second.

Q9C and Q9H are within error of each other in abundance fitness: -0.479 ± 0.12 for the first, -0.559 ± 0.28 for the second.

Q9N and Q9Y are within error of each other in abundance fitness: -0.332 ± 0.17 for the first, -0.458 ± 0.3 for the second.

Q9R and Q9G are within error of each other in abundance fitness: -0.211 ± 0.043 for the first, -0.297 ± 0.053 for the second.

Compared with Q9T, I58T is lower in abundance fitness: -0.209 ± 0.069 for the first, -0.729 ± 0.097 for the second.

I58M and A59I are within error of each other in abundance fitness: -0.004 ± 0.065 for the first, 0.131 ± 0.1 for the second.

Compared with A59D, A59P is lower in abundance fitness: -0.08 ± 0.11 for the first, -0.646 ± 0.12 for the second.

First: A59R
Second: A59C
The abundance fitness of the first is higher: -0.007 ± 0.043 for the first, -0.188 ± 0.11 for the second.

A59F and A59V are within error of each other in abundance fitness: -0.015 ± 0.12 for the first, -0.122 ± 0.041 for the second.

First: A59G
Second: K2E
The abundance fitness of the first is higher: 0.017 ± 0.049 for the first, -0.379 ± 0.06 for the second.

First: K2M
Second: K2P
The abundance fitness of the first is higher: -0.217 ± 0.11 for the first, -0.528 ± 0.12 for the second.

Compared with K2A, K2T is higher in abundance fitness: -0.242 ± 0.082 for the first, 0.057 ± 0.065 for the second.

N35D and N35R are within error of each other in abundance fitness: -0.132 ± 0.12 for the first, -0.101 ± 0.04 for the second.

N35T and N35K are within error of each other in abundance fitness: 0.025 ± 0.064 for the first, -0.063 ± 0.086 for the second.

First: N35V
Second: Y4L
The abundance fitness of the first is lower: -0.161 ± 0.053 for the first, 0.068 ± 0.042 for the second.

Y4S and Y4F are within error of each other in abundance fitness: -0.022 ± 0.047 for the first, -0.063 ± 0.077 for the second.

First: Y4R
Second: Y4E
The abundance fitness of the first is higher: 0 ± 0.035 for the first, -0.133 ± 0.048 for the second.

Y4Q and Y4H are within error of each other in abundance fitness: 0.009 ± 0.059 for the first, 0.048 ± 0.094 for the second.

Y4A and L44Y are within error of each other in abundance fitness: -0.217 ± 0.061 for the first, -0.037 ± 0.2 for the second.

Going from L44W to L44P, the abundance fitness falls from -0.059 ± 0.067 to -0.853 ± 0.17.

L44C and L44Q are within error of each other in abundance fitness: -0.684 ± 0.38 for the first, -0.307 ± 0.1 for the second.

First: L44A
Second: Y22E
The abundance fitness of the first is lower: -0.475 ± 0.07 for the first, -0.144 ± 0.085 for the second.

First: Y22P
Second: Y22R
The abundance fitness of the first is lower: -0.95 ± 0.19 for the first, 0.11 ± 0.05 for the second.

Going from R43H to R43A, the abundance fitness falls from -0.072 ± 0.42 to -0.721 ± 0.14.

R43L and R43E are within error of each other in abundance fitness: -0.963 ± 0.12 for the first, -0.824 ± 0.3 for the second.

Compared with Y42N, Y42S is lower in abundance fitness: -0.159 ± 0.25 for the first, -0.525 ± 0.093 for the second.

Going from Y42L to R16V, the abundance fitness rises from -1.02 ± 0.17 to -0.133 ± 0.044.

R16G and R16Y are within error of each other in abundance fitness: -0.108 ± 0.037 for the first, 0 ± 0.087 for the second.

R16D and R16F are within error of each other in abundance fitness: -0.106 ± 0.097 for the first, -0.169 ± 0.079 for the second.

Q36G and Q36E are within error of each other in abundance fitness: -0.398 ± 0.09 for the first, -0.485 ± 0.3 for the second.

Compared with Q36N, S24T is higher in abundance fitness: -0.574 ± 0.22 for the first, -0.025 ± 0.046 for the second.

Going from S24I to S24Q, the abundance fitness falls from 0.027 ± 0.12 to -0.411 ± 0.071.

Compared with S24Y, C38M is higher in abundance fitness: -0.487 ± 0.34 for the first, 0.12 ± 0.09 for the second.

C38Y and C38R are within error of each other in abundance fitness: -0.082 ± 0.12 for the first, -0.094 ± 0.051 for the second.

Compared with C38V, L25D is lower in abundance fitness: -0.075 ± 0.063 for the first, -0.717 ± 0.11 for the second.

Compared with L25K, L25W is lower in abundance fitness: -0.542 ± 0.09 for the first, -0.971 ± 0.19 for the second.

Compared with L25A, L25V is higher in abundance fitness: -0.919 ± 0.12 for the first, -0.54 ± 0.052 for the second.

First: V40T
Second: V40Q
The abundance fitness of the first is lower: -0.164 ± 0.072 for the first, 0.073 ± 0.14 for the second.

Going from V40P to V40E, the abundance fitness rises from -0.925 ± 0.2 to -0.253 ± 0.11.

First: D37S
Second: D37Q
The abundance fitness of the first is lower: -0.196 ± 0.079 for the first, 0.14 ± 0.15 for the second.

D37G and D37E are within error of each other in abundance fitness: -0.219 ± 0.061 for the first, -0.141 ± 0.15 for the second.

D37T and D37N are within error of each other in abundance fitness: -0.387 ± 0.16 for the first, -0.186 ± 0.15 for the second.

Going from K30N to K30W, the abundance fitness falls from -0.478 ± 0.29 to -0.969 ± 0.15.

K30I and K30V are within error of each other in abundance fitness: -0.63 ± 0.47 for the first, -0.713 ± 0.094 for the second.

Going from K30S to K30R, the abundance fitness rises from -0.265 ± 0.075 to -0.006 ± 0.032.

Compared with K30E, P60Q is higher in abundance fitness: -0.336 ± 0.088 for the first, 0.121 ± 0.066 for the second.

P60V and P60K are within error of each other in abundance fitness: -0.04 ± 0.051 for the first, 0.024 ± 0.057 for the second.

P60C and P60F are within error of each other in abundance fitness: -0.221 ± 0.2 for the first, -0.036 ± 0.13 for the second.

P60H and P60S are within error of each other in abundance fitness: -0.06 ± 0.18 for the first, 0.098 ± 0.08 for the second.

Going from L34S to L34W, the abundance fitness rises from -0.835 ± 0.17 to -0.27 ± 0.055.

L34T and K8I are within error of each other in abundance fitness: -1.05 ± 0.23 for the first, -0.683 ± 0.16 for the second.

K8Y and K8S are within error of each other in abundance fitness: -0.231 ± 0.18 for the first, -0.111 ± 0.04 for the second.

Compared with K8P, K8H is higher in abundance fitness: -1.02 ± 0.18 for the first, -0.102 ± 0.11 for the second.

First: K27R
Second: D23W
The abundance fitness of the first is higher: -0.046 ± 0.2 for the first, -0.338 ± 0.053 for the second.

First: D23E
Second: D23K
The abundance fitness of the first is higher: 0.085 ± 0.057 for the first, -0.106 ± 0.077 for the second.

Compared with D23S, D23G is lower in abundance fitness: -0.145 ± 0.065 for the first, -0.388 ± 0.038 for the second.

Compared with D23Q, G63M is lower in abundance fitness: 0.118 ± 0.067 for the first, -0.269 ± 0.1 for the second.

Compared with G63F, G63E is lower in abundance fitness: -0.279 ± 0.1 for the first, -0.486 ± 0.094 for the second.

G63W and G63H are within error of each other in abundance fitness: -0.78 ± 0.12 for the first, -0.63 ± 0.47 for the second.

E65Q and E65A are within error of each other in abundance fitness: -0.184 ± 0.14 for the first, -0.044 ± 0.078 for the second.

E65R and E65P are within error of each other in abundance fitness: -0.385 ± 0.059 for the first, -0.26 ± 0.12 for the second.

E65Y and G18D are within error of each other in abundance fitness: -0.305 ± 0.19 for the first, -0.143 ± 0.2 for the second.

G18P and G18A are within error of each other in abundance fitness: -0.659 ± 0.099 for the first, -0.513 ± 0.056 for the second.

First: G18M
Second: D17A
The abundance fitness of the first is lower: -0.89 ± 0.15 for the first, 0.039 ± 0.058 for the second.

D17M and D17E are within error of each other in abundance fitness: -0.144 ± 0.075 for the first, -0.032 ± 0.067 for the second.

D17K and D17S are within error of each other in abundance fitness: 0.017 ± 0.065 for the first, -0.04 ± 0.058 for the second.

D17V and D17G are within error of each other in abundance fitness: -0.186 ± 0.065 for the first, -0.096 ± 0.057 for the second.

D17F gave an abundance fitness of -0.114 ± 0.15.
